Measured values as given in PMC4960544, “Production of full-length soluble Plasmodium falciparum RH5 protein vaccine using a Drosophila melanogaster Schneider 2 stable cell line system” (Scientific Reports, 2016).

Legend:
Assay in all cases: SPR; basigin immobilised on a CM5 chip by amine coupling (850 RU); PfRH5 variant injected at 8-0.0625 uM, 120 s at 30 uL/min, 300 s dissociation; 20 C; 10 mM HEPES pH 7.4, 150 mM NaCl, 3 mM EDTA, 0.005% Tween-20, 2 mg/mL dextran, 1 mg/mL salmon sperm DNA; blank surface subtracted; global 1:1 interaction model
Details in all cases: both partners purified
[1] = target: T1, PfRH5 protein variant version 1.0 (7G8 sequence, four N-linked glycosylation sequons mutated Thr to Ala) (Plasmodium falciparum (7G8 …, UniProt Q8IFM5 26-526, C203Y | Thr to Ala in the sequon starting at N38 (position 40 worked out) | Thr …))
T1 construct: The construct has an N-terminal 18-residue BiP insect signal peptide (…) in place of the native one; No cleavage site for the His6 tag is described; also called PfRH5 v1.0; v1.0
T1 sequence: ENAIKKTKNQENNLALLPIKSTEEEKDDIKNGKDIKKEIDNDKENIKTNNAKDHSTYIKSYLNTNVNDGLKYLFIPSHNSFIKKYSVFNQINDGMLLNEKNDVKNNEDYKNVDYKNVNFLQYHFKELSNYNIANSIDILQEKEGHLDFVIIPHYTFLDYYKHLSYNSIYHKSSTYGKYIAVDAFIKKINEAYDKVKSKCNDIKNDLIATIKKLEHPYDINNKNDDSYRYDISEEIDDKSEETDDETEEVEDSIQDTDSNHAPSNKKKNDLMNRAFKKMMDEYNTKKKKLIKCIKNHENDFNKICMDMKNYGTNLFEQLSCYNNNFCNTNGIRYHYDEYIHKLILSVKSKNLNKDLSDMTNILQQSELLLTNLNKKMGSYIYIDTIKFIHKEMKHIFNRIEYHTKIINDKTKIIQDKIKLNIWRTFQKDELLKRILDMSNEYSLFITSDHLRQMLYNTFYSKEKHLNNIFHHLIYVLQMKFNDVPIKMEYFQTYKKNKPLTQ

[2] = target: T2, PfRH5 protein variant version 3.0 (3D7 sequence, four putative N-linked glycosylation sites mutated Asn to … (Plasmodium falciparum (3D7 clone), UniProt Q8IFM5 26-526, N38Q | N214Q | Asn to Gln at N284 | Asn to Gln at N297))
T2 construct: the four putative N-linked glycosylation sites (N38, N214, N284, N297) mutated Asn to Gln; The construct has an N-terminal BiP insect signal peptide (…); No cleavage site for the His6 tag is described; also called PfRH5 v3.0; v3.0
T2 sequence: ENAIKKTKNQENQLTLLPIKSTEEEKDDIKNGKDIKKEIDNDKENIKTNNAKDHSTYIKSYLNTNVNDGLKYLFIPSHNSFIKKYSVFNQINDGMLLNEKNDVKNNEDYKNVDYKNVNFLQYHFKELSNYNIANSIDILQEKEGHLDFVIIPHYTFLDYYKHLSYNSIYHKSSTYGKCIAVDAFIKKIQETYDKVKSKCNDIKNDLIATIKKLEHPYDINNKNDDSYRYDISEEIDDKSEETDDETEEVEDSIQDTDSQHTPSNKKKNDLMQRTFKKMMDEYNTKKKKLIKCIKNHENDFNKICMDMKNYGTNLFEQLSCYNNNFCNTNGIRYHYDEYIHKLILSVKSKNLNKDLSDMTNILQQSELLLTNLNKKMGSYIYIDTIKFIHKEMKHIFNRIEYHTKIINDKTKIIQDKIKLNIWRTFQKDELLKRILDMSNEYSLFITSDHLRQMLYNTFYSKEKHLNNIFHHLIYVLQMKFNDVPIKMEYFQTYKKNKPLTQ

[3] = target: T3, PfRH5 protein variant version 5.0 (native 3D7 PfRH5 sequence) (Plasmodium falciparum (3D7 clone), UniProt Q8IFM5 26-526, N-linked glycan(s): one or both of the N-X-T sequons starting at N38 and N214 are glycosylated)
T3 construct: The construct has an N-terminal BiP insect signal peptide (…); No cleavage site for the His6 tag is described; also called PfRH5 v5.0; v5.0; source: without the Con A step
T3 sequence: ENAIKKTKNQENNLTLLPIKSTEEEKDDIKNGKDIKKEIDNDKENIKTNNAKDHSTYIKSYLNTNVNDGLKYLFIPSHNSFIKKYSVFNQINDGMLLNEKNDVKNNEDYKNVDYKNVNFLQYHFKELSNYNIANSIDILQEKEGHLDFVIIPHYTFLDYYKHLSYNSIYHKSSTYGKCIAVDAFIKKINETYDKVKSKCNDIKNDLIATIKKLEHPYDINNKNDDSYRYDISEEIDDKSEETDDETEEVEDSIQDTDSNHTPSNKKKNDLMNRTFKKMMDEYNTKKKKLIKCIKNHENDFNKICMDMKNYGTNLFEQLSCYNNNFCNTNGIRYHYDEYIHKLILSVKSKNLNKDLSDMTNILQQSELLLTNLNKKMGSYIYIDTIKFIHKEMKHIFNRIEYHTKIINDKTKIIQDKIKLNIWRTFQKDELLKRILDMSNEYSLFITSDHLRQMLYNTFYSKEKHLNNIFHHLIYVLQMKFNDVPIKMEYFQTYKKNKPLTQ

Measured: binding result

B1: recombinant basigin, immunoglobulin domains 1 and 2 of the short isoform (22-205) (domain or fragment)
chain: GAAGTVFTTVEDLGSKILLTCSLNDSATEVTGHRWLKGGVVLKEDALPGQKTEFKVDSDDQWGEYSCVFLPEPMGTANIQLHGPPRVKAVKSSEHINEGETAMLVCKSESVPPVTDWAWYKITDSEDKALMNGSESRFFVSSSQGRSELHIENLNMEADPGQYRCNGTSSKGSDQAIITLRVRSH
notes: additional glycine left at the N-terminus from the TEV cleavage site; basigin (CD147), immunoglobulin domains 1 and 2 of the short isoform, residues 22-205; numbers count on: the short isoform; basigin is spoken of as the red blood cell receptor of the human malaria parasite; also called CD147; PfRH5 receptor; not shown: His6, N-terminal, cleaved
binds: [1] | [2] | [3]
